Laboratory results taken from patent US20220298255A1 (SEATTLE CHILDREN S HOSPITAL D B A SEATTLE CHILDREN S …, published 2022).
Values belong to the binder of their own block, whether it stands above or below them.

Legend:
[1] = target: T1, mouse E-cadherin on cells (endogenous on 4T1 and Py2T cells; expressed in colo205 cells) (mouse, UniProt P09803 157-884); assay: immunofluorescence staining of parental 4T1 cells, antibody at 1 µg/mL for 7 hrs
T1 construct: whole, on cells; also called endogenous mouse E-cadherin; mE-cadherin
T1 sequence (looked up): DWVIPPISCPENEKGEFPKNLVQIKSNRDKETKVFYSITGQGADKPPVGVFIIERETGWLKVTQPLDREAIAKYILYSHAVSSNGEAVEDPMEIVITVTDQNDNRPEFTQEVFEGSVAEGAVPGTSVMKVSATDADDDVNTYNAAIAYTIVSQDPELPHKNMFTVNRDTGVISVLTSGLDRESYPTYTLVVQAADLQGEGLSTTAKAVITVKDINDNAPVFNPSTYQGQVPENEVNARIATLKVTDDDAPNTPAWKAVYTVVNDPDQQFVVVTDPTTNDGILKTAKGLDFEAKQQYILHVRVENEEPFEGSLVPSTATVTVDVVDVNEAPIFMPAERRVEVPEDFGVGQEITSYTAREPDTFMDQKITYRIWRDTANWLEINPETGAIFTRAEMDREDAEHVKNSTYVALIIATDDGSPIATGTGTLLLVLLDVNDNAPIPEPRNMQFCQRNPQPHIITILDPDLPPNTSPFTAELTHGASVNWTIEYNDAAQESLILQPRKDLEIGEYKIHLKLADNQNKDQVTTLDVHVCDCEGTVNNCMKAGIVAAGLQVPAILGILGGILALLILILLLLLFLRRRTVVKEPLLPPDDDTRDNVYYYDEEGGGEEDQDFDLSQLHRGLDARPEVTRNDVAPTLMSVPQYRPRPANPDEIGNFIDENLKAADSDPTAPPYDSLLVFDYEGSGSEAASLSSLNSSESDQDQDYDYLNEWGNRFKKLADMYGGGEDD

[2] = target: T2, mouse E-cadherin (form in the assay not stated) (mouse, UniProt P09803 157-709, limits assumed); assay: ELISA of hybridomas
T2 construct: neither place states the form; also called the mouse E-cadherin
T2 sequence (looked up): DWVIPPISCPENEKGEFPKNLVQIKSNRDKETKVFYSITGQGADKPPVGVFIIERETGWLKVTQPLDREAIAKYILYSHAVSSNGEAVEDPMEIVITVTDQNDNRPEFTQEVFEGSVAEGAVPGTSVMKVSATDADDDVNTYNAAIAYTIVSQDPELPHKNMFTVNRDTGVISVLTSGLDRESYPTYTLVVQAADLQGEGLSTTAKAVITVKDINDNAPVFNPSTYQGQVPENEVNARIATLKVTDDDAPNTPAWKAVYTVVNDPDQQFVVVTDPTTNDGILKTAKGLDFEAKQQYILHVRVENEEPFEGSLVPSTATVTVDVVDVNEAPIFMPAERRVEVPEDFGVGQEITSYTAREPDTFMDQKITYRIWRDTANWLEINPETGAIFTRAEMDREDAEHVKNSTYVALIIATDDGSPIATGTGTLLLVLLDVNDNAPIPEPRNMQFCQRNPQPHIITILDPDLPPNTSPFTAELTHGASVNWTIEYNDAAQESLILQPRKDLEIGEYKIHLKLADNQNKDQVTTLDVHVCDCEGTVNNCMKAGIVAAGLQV

[3] = target: T2, mouse E-cadherin (form in the assay not …); assay: not described

- binding result [1]: binds
- binding result [2]: binds
B1: rabbit anti-mouse E-cad monoclonal antibody mAb-2_18-5 (antibody, mouse IgG1, V domains shown)
VH: EQLEESGGGLVKPGASLTLTCTASGFDLSTYFYMCWVRQAPGKGLEWIACIYVGSTGDTYYANWAKGRFTISKTSSTTVTLQMTSLTDADTATYFCARDIFATGINYYRALWGPGTLVTVSS
VL: AFELTQTPASVEAGVGGTVTIKCQASESINSWLSWYQQKPGQPPTLLIYSASTLASGVPSRFKGSRSGTQFTLTISDLECADAATYYCQSYYGTSTTAFGGGTEVVVK
notes: also called Whole IgG 18.5

- binding result [3]: no binding
B2: mouse anti-human E-cad monoclonal antibody mAB-1_19A11 (antibody, V domains shown)
VH: QVQLKESGPGLVAPSQSLSITCTVSGFSLSRYGVHWVRQPPGKGLEWLGMMWGGGNTDYNSALKSRLSISKDNSKSQVFLKMNSLQTDDTAMYYCASSNYVLGYAMDYWGQGTSVTVSS
VL: DIVMTQSPSSLAMSVGQKVTMNCKSSQSLLNSSNQKNYLAWYQQKPGQSPKLLIYFTSTRGSGVPDRFIGSGSGTDFTLTISSVEAEDLADYFCQQHYRTPHTFGGGTKVEIK
notes: also called mAb 19A11
